Experimental data from patent publication US20250353906A1.

Target: human TNFα (human) (UniProt P01375)
Experiment: cell-based or functional assay

Sequence of human TNFα (human) (P01375 77-233 limits assumed): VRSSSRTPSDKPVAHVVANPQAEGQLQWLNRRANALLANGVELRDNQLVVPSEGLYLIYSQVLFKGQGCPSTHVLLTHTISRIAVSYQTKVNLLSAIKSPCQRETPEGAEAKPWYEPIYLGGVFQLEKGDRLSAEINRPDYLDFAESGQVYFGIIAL

Etanercept (PRO078) (Fc fusion) was tested, and the IC50 (nM, replicate 2), inhibition of TNFα signaling in HEK-BLUE TNFα cells was 0.07 nM.
